Assay [1] concerns the target S67 peptide. Description: IAsys biosensor, BSA-HVR1 peptide conjugate.
Assay [2] has as its target S85 peptide. Description: IAsys biosensor, BSA-HVR1 peptide conjugate.
Assay [3] addresses DH2 peptide. The assay is described as follows: peptide EIA, Nunc-Immuno and CovaLab plates.
Assay [4] has as its target EH1 peptide. Description: peptide EIA, Nunc-Immuno and CovaLab plates.
In assay [5] the target is G3895 peptide. The assay is described as follows: peptide EIA, Nunc-Immuno and CovaLab plates.
Assay [6] has as its target G4309 peptide. The assay is described as follows: peptide EIA, Nunc-Immuno and CovaLab plates.
For assay [7], the target named is G4720 peptide. The assay is described as follows: peptide EIA, Nunc-Immuno and CovaLab plates.
Assay [8] concerns the target S52 peptide. Description: peptide EIA, Nunc-Immuno and CovaLab plates.
Assay [9] deals with S53 peptide. The assay is described as follows: peptide EIA, Nunc-Immuno and CovaLab plates.
The target in assay [10] is S54 peptide. The assay is described as follows: peptide EIA, Nunc-Immuno and CovaLab plates.
Assay [11] has as its target S66 peptide. Description: peptide EIA, Nunc-Immuno and CovaLab plates.
For assay [12], the target named is S67 peptide. Description: peptide EIA, Nunc-Immuno and CovaLab plates.
In assay [13] the target is S82 peptide. Description: peptide EIA, Nunc-Immuno and CovaLab plates.
For assay [14], the target named is S83 peptide. The assay is described as follows: peptide EIA, Nunc-Immuno and CovaLab plates.
The target in assay [15] is S85 peptide. The assay is described as follows: peptide EIA, Nunc-Immuno and CovaLab plates.
The target in assay [16] is US1 peptide. Description: peptide EIA, Nunc-Immuno and CovaLab plates.
Assay [17] has as its target T1, S87 peptide.
T1 construct: Synthetic HVR 1 peptide
T1 peptide: CTGFSKHNNMGSQQKV
Description: peptide EIA, Nunc-Immuno and CovaLab plates.

From patent WO2002045743A2 (dated 2002) come the findings set out here.

B1: mAb 2P24 (antibody, V domains shown)
V domain 1: EFQLQQSGAELVRPGPLVTLSCKASGFNIKDYYMNWVKQRPEQGLEWIGRIDPKNGNALYDPKFQDKARITADTSSNTAYLQLNSLTSEATAVYYCSSGWLDYWGQGTSLAVYS
V domain 2: DIVMTQSPASLAVFRGQRATISYRASKSVSTSGYSYMHWNQQKPGQPPRLLIYLVSNLESGVPARFSGSGSGTDFTLNIHPVEEEDAATYYCQHIRELTAFGGGTK
As a reminder, the Kd is the equilibrium constant for the complex coming apart. Low values mean tighter binding, high ones weaker binding. In the case of B1, the Kd in assay [1] was determined as 18.1 nM; in assay [2], 24.3 nM. Moreover, the “EIA Sample/Cutoff ratio (S/CO)” value in [3] came out at 18.6 S/CO; in assay [4], 24.8 S/CO; in assay [5], 25.4 S/CO; in assay [6], 1.1 S/CO; in [7] it was 24 S/CO; in assay [8], 1.4 S/CO. In addition, the “EIA Sample/Cutoff ratio (S/CO)” value in assay [9] turned out to be 5.7 S/CO; in [10], 18.9 S/CO; in assay [11], 12.7 S/CO; in assay [12], 24.7 S/CO; in assay [13], 16.1 S/CO; in assay [14], 11.5 S/CO. In addition, in assay [15], the “EIA Sample/Cutoff ratio (S/CO)” value was determined as 25.6 S/CO.

B2: mAb 15H4 (antibody, V domains shown)
VH: QVQLQQSGAELARPGASVKLSCKASGYTFTRYWMQWVKQKPGQGLEWIGAIYCGDGDTRFTQKFKGKATLTADKSSSTAYMQLSNLASEDSAVYYCVIYGNYYDAMDYWGQGTSVTVSS
VL: DIVMTQAPLSMPVSLGDQASISGRSSQSLVHSNGNTYLHWYLQKPGQSPKLLIHKVSKRFSGVPDRFSGSGSGTDFTLKIRRVEAEDLGVYFCSQNTHVPFTFGGGTK
As for B2, the values for the Kd in assay [1] and in assay [2] were 110 nM and 58.5 nM, respectively. The “EIA Sample/Cutoff ratio (S/CO)” value in assay [3] was determined as 12.9 S/CO; in [4], 16.9 S/CO; in [5], 7.9 S/CO; in [7], 14.2 S/CO; in assay [8], 1.9 S/CO; in assay [10], 3.9 S/CO. Further, the “EIA Sample/Cutoff ratio (S/CO)” value in assay [11] worked out at 24.8 S/CO; in assay [12], 25.1 S/CO; in assay [13] it was 3.3 S/CO; in [14], 2.3 S/CO; in assay [15], 24.4 S/CO; in assay [16], 21 S/CO. Moreover, in [17], the “EIA Sample/Cutoff ratio (S/CO)” value worked out at 8.9 S/CO.
